Patent publication US20220411519A1 (SHANGHAI NOVAMAB BIOPHARMACEUTICALS, published 2022)

T1: mouse IL-4R (mouse, UniProt P16382 26-233, limits assumed)
T1 sequence (looked up): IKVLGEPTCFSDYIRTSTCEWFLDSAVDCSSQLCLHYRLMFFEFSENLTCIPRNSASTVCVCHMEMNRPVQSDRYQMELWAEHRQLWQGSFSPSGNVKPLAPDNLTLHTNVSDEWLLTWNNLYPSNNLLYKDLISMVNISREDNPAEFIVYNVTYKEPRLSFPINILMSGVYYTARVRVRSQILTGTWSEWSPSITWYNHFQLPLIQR

B1: humanized tetravalent antibody tet-huNb103 (Fc fusion)
chain: EVQLVESGGGLVQPGGSLRLSCAASGSTSYRYCMAWFRQAPGKGLEAVASIRPRSGRAYYADSVKGRFTISRDNSKNTLYLQMNSLRAEDTAVYYCAASDNDGNCQDYWGKGTLVTVSSGGGGSGGGSEVQLVESGGGLVQPGGSLRLSCAASGSTSYRYCMAWFRQAPGKGLEAVASIRPRSGRAYYADSVKGRFTISRDNSKNTLYLQMNSLRAEDTAVYYCAASDNDGNCQDYWGKGTLVTVSSESKYGPPCPPCPAPEFLGGPSVFLFPPKPKDTLMISRTPEVTCVVVDVSQEDPEVQFNWYVDGVEVHNAKTKPREEQFNSTYRVVSVLTVLHQDWLNGKEYKCKVSNKGLPSSIEKTISKAKGQPREPQVYTLPPSEEMTKNQVSLTCLVKGFYPSDIAVEWESNGQPENNYKTTPPVLDSDGSFFLYSRLTVDKSRWQEGNVFSCSVMHEALHNHYTQKSLSLSLG
B2: IL-4R single-domain antibody Nb103 (VHH)
VHH: QVQLQESGGGSVQAGGSLRVSCAASGSTSYRYCMAWFRQAPGKEREAVASIRPRSGRAYYADSVKGRFTISLDNAKNTLYLQMNSLKPEDTAMYYCAASDNDGNCQDYWGKGTQVTVSS
notes: also called candidate single-domain antibody Nb103; IL-4Ra Nb103 antibody; not shown: tag(s) from the pMECS phage vector
B3: humanized antibody huNb103 (humanized single-domain antibody fused with Fc) (Fc fusion)
chain: EVQLVESGGGLVQPGGSLRLSCAASGSTSYRYCMAWFRQAPGKGLEAVASIRPRSGRAYYADSVKGRFTISRDNSKNTLYLQMNSLRAEDTAVYYCAASDNDGNCQDYWGKGTLVTVSSESKYGPPCPPCPAPEFLGGPSVFLFPPKPKDTLMISRTPEVTCVVVDVSQEDPEVQFNWYVDGVEVHNAKTKPREEQFNSTYRVVSVLTVLHQDWLNGKEYKCKVSNKGLPSSIEKTISKAKGQPREPQVYTLPPSEEMTKNQVSLTCLVKGFYPSDIAVEWESNGQPENNYKTTPPVLDSDGSFFLYSRLTVDKSRWQEGNVFSCSVMHEALHNHYTQKSLSLSLG
notes: called bivalent, so two chains; expressed in HEK293F; also called humanized bivalent antibody; human bivalent antibody
B4: Dupilumab (antibody, V domains shown)
VH: EVQLVESGGGLEQPGGSLRLSCAGSGFTFRDYAMTWVRQAPGKGLEWVSSISGSGGNTYYADSVKGRFTISRDNSKNTLYLQMNSLRAEDTAVYYCAKDRLSITIRPRYYGLDVWGQGTTVTVSS
VL: DIVMTQSPLSLPVTPGEPASISCRSSQSLLYSIGYNYLDWYLQKSGQSPQLLIYLGSNRASGVPDRFSGSGSGTDFTLKISRVEAEDVGFYYCMQALQTPYTFGQGTKLEIKR

What was measured:
[1] = target: T2, human IL-4R on cells (293F/IL-4R cells; HEK293F cells with high IL-4Rα expression) (human, UniProt P24394 26-825); assay: cell-based or functional assay
rhesus monkeys IL-4R = rhesus monkeys IL-4R (rhesus monkey, UniProt F6RUR0 26-232); assay: ELISA, coated IL-4R, same method as for FIG. 6
Description: (§1) ELISA was used to verify whether the candidate antibody could cross-react with IL-4R proteins of different species, and the method was as follows: (1) 1 ug/mL human IL-4R, mouse IL-4R and cynomolgus monkey IL-4R were added into the plate and coated overnight at 4° C. with 100 uL/well. (2) After washing with PBST for 5 times, 300 uL 1% BSA was added to each well and sealed for 2 hours at room temperature. (3) After washing with PBST for 5 times, 100 uL of 2 ug/mL antibody to be tested was added and incubated at 37° C. for 1 hour. (4) After washing with PBST for 5 times, 100 uL diluted anti-HA antibody (diluted at 1:2000) was added and incubated at 37° C. for 1 hour. (4) After washing with PBST for 5 times, 100 uL diluted anti-mouse IgG antibody (diluted at 1:2000) was added and incubated at 37° C. for 30 minutes. (5) After washing with PBST for 5 times, 100 uL PA chromogenic solution was added and developing at 37° C. for 10 minutes, and the absorption value was measured at 405 nm wavelength with a microplate reader. The results are shown in FIG. 6, the candidate antibody Nb103 can recognize the human IL-4R, but not mouse and cynomolgus monkey IL-4R.
ELISA was used again to verify whether the candidate antibody could cross-react with IL-4R protein of different monkey types. The detection method was the same as above. […]

mouse IL-4R = target: T1, mouse IL-4R; assay: ELISA, IL-4R coated at 1 ug/mL, anti-HA detection
Description: as §1

cynomolgus monkey IL-4R = cynomolgus monkey IL-4R (cynomolgus monkey, UniProt A0A2K5V580 33-239); assay: ELISA, IL-4R coated at 1 ug/mL, anti-HA detection
Description: as §1

[2] = target: T2, human IL-4R on cells (293F/IL-4R cells; …); assay: flow cytometry competition: antibody titrated against 5 ug/mL IL-4-biotin on 293F/IL-4R cells, SA-PE
Description: (1) A certain number of 293F/IL-4R cells that were transitioned for 48 h were centrifuged at 1000 rpm for 5 min, the supernatant was discarded, the cells were re-suspended and washed with PBS for once, and counted. The cells were divided into 96-well plates at 100 ul/well, and then centrifuged at 3000 rpm at 4° C. for 4 min. (2) The supernatant was aspirated, and the single-domain antibody with different sequences in gradient diluted in example 1 was added (two-fold gradient dilution starting from 40 ug/mL). 50 uL was added to each well, and then 50 uL of 5 ug/mL IL-4-biotin was added to mix, and incubated at 4° C. for 20 min. (3) Centrifugation was performed at 3000 rpm at 4° C. for 4 min, and the supernatant was discarded. 200 uL PBS was added to each well to wash the cells, and the supernatant was discarded by centrifugation again. Diluted SA-PE staining solution was added and incubated at 4° C. for 20 min. (4) Centrifugation was performed at 3000 rpm at 4° C. for 4 min, and the supernatant was discarded. 200 uL PBS was added to each well to wash the cells, and the supernatant was discarded by centrifugation again. 200 uL PBS was added to re-suspend the cells, and the PE signal of the samples was detected by flow cytometry.

[3] = target: T2, human IL-4R on cells (293F/IL-4R cells; …); assay: flow cytometry on HEK293F cells with high IL-4Rα expression, anti-human Fc-FITC
Description: (1) HEK293F cells with high IL-4Rα expression were collected, centrifuged at 1000 rpm for 5 min, and the supernatant was discarded. The cells were re-suspended with 5 mL PBS and centrifuged at 1000 rpm for 5 min, and the supernatant was discarded. Then the cells were re-suspended with 2 mL PBS, and counted. The cells were divided into 96-well plates with 3×10⁵ cells per well; (2) Humanized antibody huNb103 (amino acid sequence refers to SEQ ID NO:16) and Dupilumab were diluted by 2-fold gradient dilution (40 ug/mL, 20 ug/mL, 10 ug/mL, 5 ug/mL, 2.5 ug/mL, 1.25 ug/mL, 0.625 ug/mL, 0.313 ug/mL, 0.156 ug/mL, 0.078 ug/mL). The cells in the 96-well plate were resuspended with the diluted antibody and incubated at 4° C. for 20 min. (3) Centrifugation was performed at 3000 rpm at 4° C. for 4 min, and 200 ul PBS was added to each well. After resuspension, centrifugation was performed at 3000 rpm at 4° C. for 4 min. (4) Diluted anti-human Fc-FITC antibody (diluted at 1:200) was added and incubated at 4° C. for 20 min. (5) Centrifugation was performed at 3000 rpm at 4° C. for 4 min, and the supernatant was discarded, 200 uL PBS was added into each well to wash cells for two times, then 200 uL PBS was added to re-suspend the cells. The cells were transferred to flow tube to detect FITC signal of each sample via flow cytometry.

[4] = target: T2, human IL-4R on cells (293F/IL-4R cells; …); assay: flow cytometry blocking of IL-4/IL-4R on HEK293F cells with high IL-4Rα expression, SA-PE
Description: (1) HEK293F cells with high IL-4Rα expression were collected, centrifuged at 1000 rpm for 5 min, and the supernatant was discarded. The cells were re-suspended with 5 mL PBS and centrifuged at 1000 rpm for 5 min, and the supernatant was discarded. Then the cells were re-suspended with 2 mL PBS, and counted. The cells were divided into 96-well plates with 3×10⁵ cells per well. (2) Humanized antibody huNb103 (amino acid sequence refers to SEQ ID NO:16) and Dupilumab were diluted by 2-fold gradient dilution (40 ug/mL, 20 ug/mL, 10 ug/mL, 5 ug/mL, 2.5 ug/mL, 1.25 ug/mL, 0.625 ug/mL, 0.313 ug/mL, 0.156 ug/mL, 0.078 ug/mL). The cells in the 96-well plate were resuspended with the diluted antibody and incubated at 4° C. for 20 min. (3) Centrifugation was performed at 3000 rpm at 4° C. for 4 min, and 200 ul PBS was added to each well. After resuspension, centrifugation was performed at 3000 rpm at 4° C. for 4 min. (4) Diluted SA-PE staining solution (diluted at 0.3:100) was added and incubated at 4° C. for 20 min. (5) Centrifugation was performed at 3000 rpm at 4° C. for 4 min, and the supernatant was discarded, 200 uL PBS was added into each well to wash cells for two times, then 200 uL PBS was added again to re-suspend the cells. The cells were transferred to flow tube to detect PE signal of each sample via flow cytometry.

Binder | inhibition of TF-1 cell proliferation induced by IL-4 (CCK8, OD450) [1] | inhibition of TF-1 cell proliferation induced by IL-13 (CCK8, OD450) [1] | binding result (rhesus monkeys IL-4R) | binding result (mouse IL-4R) | binding result (cynomolgus monkey IL-4R) | IC50 [2] | EC50 [3] | IC50 [4]
B1 | 0.02 µg/mL | 0.026 µg/mL | – | – | – | – | – | –
B2 | 0.149 µg/mL | 0.066 µg/mL | no binding | no binding (tested: 2 ug/mL antibody) | no binding (tested: 2 ug/mL antibody) | 0.274 µg/mL | – | –
B3 | 0.032 µg/mL | 0.059 µg/mL | – | – | – | – | 0.286 µg/mL | 0.474 µg/mL
B4 | – | – | – | – | – | 0.511 µg/mL | 0.36 µg/mL | 1.13 µg/mL
